{
  "source": "patent US7119066",
  "about": "(Regeneron, dated 2006)",
  "binders": {"B1": {"name": "recombinant human CNTF (ciliary neurotrophic factor) (ligand)", "chain": "MAFTEHSPLTPHRRDLCSRSIWLARKIRSDLTALTESYVKHQGLNKNINLDSADGMPVASTDQWSELTEAERLQENLQAYRTFHVLLARLLEDQQVHFTPTEGDFHQAIHTLLLQVAAFAYQIEELMILLEYKIPRNEADGMPINVGDGGLFEKKLWGLKVLQELSQWTVRSIHDLRFISSHQTGIPARGSHYIANNKKM", "notes": "also called rHCNTF; hCNTF"}},
  "key": {"[1]": {"target": "T1, rat CNTF receptor on rat superior cervical ganglia (SCG) neurons (rat, UniProt Q08406 23-342)", "T1 construct": "whole, on cells; also called rat SCG neurons; rat receptor", "T1 sequence (looked up)": "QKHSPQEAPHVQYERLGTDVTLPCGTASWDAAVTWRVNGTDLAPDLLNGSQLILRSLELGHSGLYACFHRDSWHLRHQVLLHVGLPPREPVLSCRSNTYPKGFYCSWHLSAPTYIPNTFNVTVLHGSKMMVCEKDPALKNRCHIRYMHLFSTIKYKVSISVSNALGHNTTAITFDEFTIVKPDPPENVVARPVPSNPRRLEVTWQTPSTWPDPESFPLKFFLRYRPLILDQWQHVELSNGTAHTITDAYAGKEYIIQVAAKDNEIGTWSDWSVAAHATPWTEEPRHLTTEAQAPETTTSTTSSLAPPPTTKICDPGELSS", "assay": "competition with 125I-rat CNTF on rat SCG neurons", "protocol": "Growth medium consisted of Ham's nutrient mixture F12 with 10% heat-inactivated fetal bovine serum (Hyclone), nerve growth factor (NGF) (100 ng/ml), penicillin (50 U/ml) and streptomycin (50 µg/ml). Cultures were maintained at 37° C. in a humidified 95% air/5% CO_2 atmosphere. Ganglion non-neuronal cells were eliminated by treatment with araC (10 µM) on days 1 and 3 of culture. Cultures were fed 3 times/week and were routinely used for binding assays within 2 weeks.\n(§1) Binding was performed directly on cell monolayers. Cells in culture wells were washed once with assay buffer consisting of phosphate buffered saline (PBS; pH 7.4), 0.1 mM bacitracin, 1 mM PMSF, 1 µg/ml leupeptin, and 1 mg/ml BSA. […] Non-specific binding was determined in the presence of 1,000-fold excess of unlabelled CNTF. Specific binding towards MG87/CNTFR was 80–90%. Data were analyzed using the […] program (ISI, Philadelphia, Pa.)."}, "[2]": {"target": "T2, human CNTF receptor alpha-component on MG87/CNTFR fibroblasts (human, UniProt P26992 23-342)", "T2 construct": "whole, on cells; also called huCNTFR; CNTFRα", "T2 sequence (looked up)": "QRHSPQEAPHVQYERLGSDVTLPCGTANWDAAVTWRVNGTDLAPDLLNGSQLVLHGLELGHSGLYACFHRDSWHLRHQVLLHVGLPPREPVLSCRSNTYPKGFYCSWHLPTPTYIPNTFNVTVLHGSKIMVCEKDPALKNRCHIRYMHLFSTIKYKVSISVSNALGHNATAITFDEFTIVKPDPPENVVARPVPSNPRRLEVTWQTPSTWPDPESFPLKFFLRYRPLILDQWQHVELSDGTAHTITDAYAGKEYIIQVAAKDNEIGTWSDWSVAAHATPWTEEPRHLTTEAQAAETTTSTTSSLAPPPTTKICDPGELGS", "assay": "competition with 125I-rat CNTF on MG87/CNTFR cells", "protocol": "as §1\nSimilar results were obtained from competition experiments with mouse fibroblasts transfected with a plasmid directing the expression of the human CNTF receptor (FIG. 4b)."}},
  "data": [
    {"binder": "B1", "values": [
      {"measurement": "fold less potent than unlabelled rat CNTF", "setting": "[1]", "value": 90, "unit": "times"},
      {"measurement": "fold less potent than rat CNTF", "setting": "[2]", "value": 12, "unit": "times"}
    ]}
  ]
}
